Results taken from PMC8166883.

Assays:
[1] = molecular target: FLAG-tagged human tumor necrosis factor α (FLAG-hTNFα) (human) (UniProt P01375); test: SPR
[2] = molecular target: FLAG-tagged human vascular endothelial growth factor-A (FLAG-hVEGF-A) (human) (UniProt P15692); test: SPR
Chain of FLAG-tagged human vascular endothelial growth factor-A (FLAG-hVEGF-A) (human) (P15692 other isoform, or with tags, fused parts or gaps): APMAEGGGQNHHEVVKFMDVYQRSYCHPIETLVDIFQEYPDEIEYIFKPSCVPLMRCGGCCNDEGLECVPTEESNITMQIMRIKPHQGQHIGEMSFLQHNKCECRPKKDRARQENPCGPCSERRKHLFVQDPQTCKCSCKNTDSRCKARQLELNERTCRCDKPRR

Chain of FLAG-tagged human tumor necrosis factor α (FLAG-hTNFα) (human) (P01375 whole entry): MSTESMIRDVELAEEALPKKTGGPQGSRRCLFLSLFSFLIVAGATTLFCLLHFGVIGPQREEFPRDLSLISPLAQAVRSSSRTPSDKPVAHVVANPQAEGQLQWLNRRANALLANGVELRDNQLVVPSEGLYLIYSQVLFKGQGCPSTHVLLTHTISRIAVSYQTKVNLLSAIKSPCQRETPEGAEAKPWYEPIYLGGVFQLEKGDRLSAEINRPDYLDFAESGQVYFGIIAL

Row | Substance | Kd [1] | koff [1] | Kd [2] | koff [2]
1 | adalimumab | 0.41 nM | 0.00036 s⁻¹ | – | –
2 | bevacizumab | – | – | 0.341 nM | 0.000105 s⁻¹
